Laboratory results as given in the RNAGym collection of RNA variant scans (doi:10.1093/molbev/msab373).

B1: Azoarcus group I ribozyme (parent)
chain: GUGCCUUGCGCCGGGAAACCACGCAAGGGAUGGUGUCAAAUUCGGCGAAACCUAAGCGCCCGCCCGGGCGUAUGGCAACGCCGAGCCAAGCUUCGGCGCCUGCGCCGAUGAAGGUGUAGAGACUAGACGGCACCCACCUAAGGCAAACGCUAUGGUGAAGGCAUAGUCCAGGGAGUGGCGAAAGUCACACAAACCGG

Variants of: B1
Experiment: reverse-splicing fitness (ratio to wild type); higher = more active; in vitro selection; Mg2+ level not given
Procedure, shortened: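 An in vitro group I ribozyme library with randomized positions was T7-transcribed and gel-purified. In triplicate, 10 pmol RNA in EPPS pH 7.5 was reacted with 50 pmoles of a 30-nt RNA substrate for 1 h at 37 °C across several added MgCl2 levels (1–48 mM), then stopped with EDTA. Products were reverse transcribed from a substrate-complementary primer, PCR-amplified and sequenced (HiSeq 4000). Fitness is a variant's read proportion after selection over that before, normalised to wild type.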
With GUGCCUUGCGCCGGGAAACCACGCAAGGGAUGGUGUCAAAUUCGGCGAAACCUAAGCGCCCGCCCGGGCGUAUGGCAACGCGGAGCCAAGCUUCGGCGCCUGCGCCGAUGCAGGUGUAGCGACUAGACGGCACCCACCUAAGGCUAACGGUAUGGUGAAGGCAUAGUCAAGGGAGUGGCGAAAGUCACACAAACCGG [C82G A111C A120C A145U C150G C169A] the reverse-splicing fitness was 0.00941. In the case of GUGCCUUGCGCCGGGAAACCACGCAAGGGAUGGUGUCAAAUUCGGCGAAACCUAAGCGCCCGCCCGGGCGUAUGGCAACGCGGAGCCAAGCUUCGGCGCCUGCGCCGAUGCAGGUGUAGCGACUAGACGGCACCCACCUAAGGCUAACGGUAUGGUGAAGGCAUAGUCGAGGGAGUGGCGAAAGUCACACAAACCGG [C82G A111C A120C A145U C150G C169G], the reverse-splicing fitness is reported as 0.00765. With GUGCCUUGCGCCGGGAAACCACGCAAGGGAUGGUGUCAAAUUCGGCGAAACCUAAGCGCCCGCCCGGGCGUAUGGCAACGCGGAGCCAAGCUUCGGCGCCUGCGCCGAUGCAGGUGUAGCGACUAGACGGCACCCACCUAAGGCUAACGAUAUGGUGAAGGCAUAGUCCAGGGAGAGGCGAAAGUCACACAAACCGG [C82G A111C A120C A145U C150A U176A] the reverse-splicing fitness was 0.0102. With GUGCCUUGCGCCGGGAAACCACGCAAGGGAUGGUGUCAAAUUCGGCGAAACCUAAGCGCCCGCCCGGGCGUAUGGCAACGCGGAGCCAAGCUUCGGCGCCUGCGCCGAUGCAGGUGUAGCGACUAGACGGCACCCACCUAAGGCUAACGAUAUGGUGAAGGCAUAGUCCAGGGAGGGGCGAAAGUCACACAAACCGG [C82G A111C A120C A145U C150A U176G] the reverse-splicing fitness was 0.00601. GUGCCUUGCGCCGGGAAACCACGCAAGGGAUGGUGUCAAAUUCGGCGAAACCUAAGCGCCCGCCCGGGCGUAUGGCAACGCGGAGCCAAGCUUCGGCGCCUGCGCCGAUGCAGGUGUAGCGACUAGACGGCACCCACCUAAGGCUAACGAUAUGGUGAAGGCAUAGUCCAGGGAGCGGCGAAAGUCACACAAACCGG [C82G A111C A120C A145U C150A U176C] showed a reverse-splicing fitness of 0.0153. With GUGCCUUGCGCCGGGAAACCACGCAAGGGAUGGUGUCAAAUUCGGCGAAACCUAAGCGCCCGCCCGGGCGUAUGGCAACGCGGAGCCAAGCUUCGGCGCCUGCGCCGAUGCAGGUGUAGCGACUAGACGGCACCCACCUAAGGCUAACGUUAUGGUGAAGGCAUAGUCCAGGGAGUGGCGAAAGUCACACAAACCGG [C82G A111C A120C A145U C150U] the reverse-splicing fitness was 0.0335. GUGCCUUGCGCCGGGAAACCACGCAAGGGAUGGUGUCAAAUUCGGCGAAACCUAAGCGCCCGCCCGGGCGUAUGGCAACGCGGAGCCAAGCUUCGGCGCCUGCGCCGAUGCAGGUGUAGCGACUAGACGGCACCCACCUAAGGCUAACGGUAUGGUGAAGGCAUAGUCCAGGGAGUGGCGAAAGUCACACAAACCGG [C82G A111C A120C A145U C150G] showed a reverse-splicing fitness of 0.00916. Work on GUGCCUUGCGCCGGGAAACCACGCAAGGGAUGGUGUCAAAUUCGGCGAAACCUAAGCGCCCGCCCGGGCGUAUGGCAACGCGGAGCCAAGCUUCGGCGCCUGCGCCGAUGCAGGUGUAGCGACUAGACGGCACCCACCUAAGGCUAACGGUAUGGUGAAGGCAUAGUCUAGGGAGAGGCGAAAGUCACACAAACCGG [C82G A111C A120C A145U C150G C169U U176A] yielded a reverse-splicing fitness of 0.00736. For GUGCCUUGCGCCGGGAAACCACGCAAGGGAUGGUGUCAAAUUCGGCGAAACCUAAGCGCCCGCCCGGGCGUAUGGCAACGCGGAGCCAAGCUUCGGCGCCUGCGCCGAUGCAGGUGUAGCGACUAGACGGCACCCACCUAAGGCUAACGGUAUGGUGAAGGCAUAGUCUAGGGAGGGGCGAAAGUCACACAAACCGG [C82G A111C A120C A145U C150G C169U U176G], the reverse-splicing fitness was 0.0068. GUGCCUUGCGCCGGGAAACCACGCAAGGGAUGGUGUCAAAUUCGGCGAAACCUAAGCGCCCGCCCGGGCGUAUGGCAACGCGGAGCCAAGCUUCGGCGCCUGCGCCGAUGCAGGUGUAGCGACUAGACGGCACCCACCUAAGGCUAACGGUAUGGUGAAGGCAUAGUCUAGGGAGCGGCGAAAGUCACACAAACCGG [C82G A111C A120C A145U C150G C169U U176C] gave a reverse-splicing fitness of 0.0121. GUGCCUUGCGCCGGGAAACCACGCAAGGGAUGGUGUCAAAUUCGGCGAAACCUAAGCGCCCGCCCGGGCGUAUGGCAACGCGGAGCCAAGCUUCGGCGCCUGCGCCGAUGCAGGUGUAGCGACUAGACGGCACCCACCUAAGGCUAACGAUAUGGUGAAGGCAUAGUCAAGGGAGCGGCGAAAGUCACACAAACCGG [C82G A111C A120C A145U C150A C169A U176C] showed a reverse-splicing fitness of 0.0129. In the case of GUGCCUUGCGCCGGGAAACCACGCAAGGGAUGGUGUCAAAUUCGGCGAAACCUAAGCGCCCGCCCGGGCGUAUGGCAACGCGGAGCCAAGCUUCGGCGCCUGCGCCGAUGCAGGUGUAGCGACUAGACGGCACCCACCUAAGGCUAACGAUAUGGUGAAGGCAUAGUCAAGGGAGGGGCGAAAGUCACACAAACCGG [C82G A111C A120C A145U C150A C169A U176G], the reverse-splicing fitness is reported as 0.00868. Work on GUGCCUUGCGCCGGGAAACCACGCAAGGGAUGGUGUCAAAUUCGGCGAAACCUAAGCGCCCGCCCGGGCGUAUGGCAACGCGGAGCCAAGCUUCGGCGCCUGCGCCGAUGCAGGUGUAGCGACUAGACGGCACCCACCUAAGGCUAACGGUAUGGUGAAGGCAUAGUCCAGGGAGAGGCGAAAGUCACACAAACCGG [C82G A111C A120C A145U C150G U176A] yielded a reverse-splicing fitness of 0.00549. For GUGCCUUGCGCCGGGAAACCACGCAAGGGAUGGUGUCAAAUUCGGCGAAACCUAAGCGCCCGCCCGGGCGUAUGGCAACGCGGAGCCAAGCUUCGGCGCCUGCGCCGAUGCAGGUGUAGCGACUAGACGGCACCCACCUAAGGCUAACGGUAUGGUGAAGGCAUAGUCCAGGGAGCGGCGAAAGUCACACAAACCGG [C82G A111C A120C A145U C150G U176C], the reverse-splicing fitness was 0.0099. GUGCCUUGCGCCGGGAAACCACGCAAGGGAUGGUGUCAAAUUCGGCGAAACCUAAGCGCCCGCCCGGGCGUAUGGCAACGCGGAGCCAAGCUUCGGCGCCUGCGCCGAUGCAGGUGUAGCGACUAGACGGCACCCACCUAAGGCUAACGGUAUGGUGAAGGCAUAGUCCAGGGAGGGGCGAAAGUCACACAAACCGG [C82G A111C A120C A145U C150G U176G] showed a reverse-splicing fitness of 0.00383.
